From the supplement of paper PMC7125110
± gives the standard error. This sample holds only a part of the variants without activity.

B1: glmS ribozyme (parent)
chain: AUAAAAGCGCCAGAACUACAGAAAUGUAGUUGACGAGGAGGAGGUUUAUCGAAUUUUCGGCGGAUGCCUCCAAA

Tests used:
Conditions in all cases: with glucosamine-6-phosphate
glucosamine-6-phosphate [1] = variants of: B1; experiment: self-cleavage kobs at 40 uM GlcN6P; higher = faster cleavage; RNA array
Summary of the method: (§1)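 In situ transcription by E. coli RNA polymerase produced barcoded ribozyme variants on sequenced MiSeq chips, and a hybridised Cy3 probe tracked them at 37 °C. Glucosamine-6-phosphate was flowed in at 40 μM to 10 mM in HEPES/KCl/Mg(OAc)2 buffer. kcat and KM were taken from weighted Michaelis–Menten fits of kobs values from exponential decay fits.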

glucosamine-6-phosphate [2] = variants of: B1; experiment: self-cleavage kobs at 160 uM GlcN6P; higher = faster cleavage; RNA array
Summary of the method: as §1

glucosamine-6-phosphate [3] = variants of: B1; experiment: self-cleavage kobs at 2500 uM GlcN6P; higher = faster cleavage; RNA array
Summary of the method: as §1

glucosamine-6-phosphate [4] = variants of: B1; experiment: self-cleavage kobs at 10000 uM GlcN6P; higher = faster cleavage; RNA array
Summary of the method: as §1

glucosamine-6-phosphate [5] = variants of: B1; experiment: self-cleavage kobs at 640 uM GlcN6P; higher = faster cleavage; RNA array
Summary of the method: as §1

Variant	self-cleavage kobs at 40 uM GlcN6P (glucosamine-6-phosphate [1])	self-cleavage kobs at 160 uM GlcN6P (glucosamine-6-phosphate [2])	self-cleavage kobs at 2500 uM GlcN6P (glucosamine-6-phosphate [3])	self-cleavage kobs at 10000 uM GlcN6P (glucosamine-6-phosphate [4])	self-cleavage kobs at 640 uM GlcN6P (glucosamine-6-phosphate [5])
A48C C71A	< 1e-05 s⁻¹	< 1e-05 s⁻¹	3.84e-05 ± 1.4e-05 s⁻¹	4.23e-05 ± 1e-05 s⁻¹	
A53G G66U C67A	7.95e-05 ± 1.9e-05 s⁻¹			0.00186 ± 0.00059 s⁻¹	
G32C A36C G37C	< 1e-05 s⁻¹				
G13C G43U	< 1e-05 s⁻¹		< 1e-05 s⁻¹	< 1e-05 s⁻¹	< 1e-05 s⁻¹
A36C A39G G60U	< 1e-05 s⁻¹		< 1e-05 s⁻¹		< 1e-05 s⁻¹
A36U U65G	< 1e-05 s⁻¹	< 1e-05 s⁻¹		< 1e-05 s⁻¹	
C10A G40C	< 1e-05 s⁻¹	< 1e-05 s⁻¹		< 1e-05 s⁻¹	< 1e-05 s⁻¹
C10U G40U A48U	< 1e-05 s⁻¹			< 1e-05 s⁻¹	< 1e-05 s⁻¹
G35U U65G	< 1e-05 s⁻¹	< 1e-05 s⁻¹	< 1e-05 s⁻¹	< 1e-05 s⁻¹	< 1e-05 s⁻¹
A39G U47C	0.000381 ± 6e-05 s⁻¹		0.00728 ± 0.0026 s⁻¹	0.0217 ± 0.0054 s⁻¹	0.00353 ± 0.0012 s⁻¹
U55A C71U	0.00109 ± 0.00019 s⁻¹	0.00212 ± 0.00076 s⁻¹	0.00755 ± 0.0025 s⁻¹	0.0549 ± 0.013 s⁻¹	0.0121 ± 0.0034 s⁻¹
C10U G37U G43U A52G G60U	< 1e-05 s⁻¹		< 1e-05 s⁻¹	< 1e-05 s⁻¹	
G51A C58G	< 1e-05 s⁻¹			< 1e-05 s⁻¹	
G32U G35U	< 1e-05 s⁻¹	< 1e-05 s⁻¹	< 1e-05 s⁻¹	< 1e-05 s⁻¹	< 1e-05 s⁻¹
A14G G40U C58G G60A	< 1e-05 s⁻¹		< 1e-05 s⁻¹		
G29C C61U	< 1e-05 s⁻¹				
G40A G63A	< 1e-05 s⁻¹		< 1e-05 s⁻¹	< 1e-05 s⁻¹	
A6U G44A C70U	< 1e-05 s⁻¹				
A53G C61G C70U	< 1e-05 s⁻¹			< 1e-05 s⁻¹	
C8U G63U	< 1e-05 s⁻¹	< 1e-05 s⁻¹			< 1e-05 s⁻¹
G29A A48U U54A	< 1e-05 s⁻¹			3.57e-05 ± 1.5e-05 s⁻¹	
C34U G40A	< 1e-05 s⁻¹		< 1e-05 s⁻¹	< 1e-05 s⁻¹	
G44U C61G	< 1e-05 s⁻¹	< 1e-05 s⁻¹	< 1e-05 s⁻¹	< 1e-05 s⁻¹	< 1e-05 s⁻¹
C11U G29A G32U C50G	7.73e-05 ± 3.1e-05 s⁻¹			7.84e-05 ± 2.3e-05 s⁻¹	

Variant	self-cleavage kobs at 40 uM GlcN6P (glucosamine-6-phosphate [1])	self-cleavage kobs at 160 uM GlcN6P (glucosamine-6-phosphate [2])	self-cleavage kobs at 2500 uM GlcN6P (glucosamine-6-phosphate [3])	self-cleavage kobs at 10000 uM GlcN6P (glucosamine-6-phosphate [4])	self-cleavage kobs at 640 uM GlcN6P (glucosamine-6-phosphate [5])
A12C A36G A64C	< 1e-05 s⁻¹			< 1e-05 s⁻¹	< 1e-05 s⁻¹
G7U G38A	< 1e-05 s⁻¹	< 1e-05 s⁻¹		< 1e-05 s⁻¹	
C11A G60U	< 1e-05 s⁻¹	< 1e-05 s⁻¹	< 1e-05 s⁻¹	< 1e-05 s⁻¹	< 1e-05 s⁻¹
C11A G66C	< 1e-05 s⁻¹		< 1e-05 s⁻¹		
A6U C8G A36G U45A A64U	< 1e-05 s⁻¹				< 1e-05 s⁻¹
U30A A42U U55C	< 1e-05 s⁻¹				
A33G A48G C71U	< 1e-05 s⁻¹	< 1e-05 s⁻¹	< 1e-05 s⁻¹	< 1e-05 s⁻¹	
A14C C34U G60U	< 1e-05 s⁻¹		< 1e-05 s⁻¹	< 1e-05 s⁻¹	< 1e-05 s⁻¹
U69C C71G	3.93e-05 ± 1.3e-05 s⁻¹	0.000225 ± 0.00011 s⁻¹	7.01e-05 ± 1.5e-05 s⁻¹	6.79e-05 ± 9e-06 s⁻¹	6.76e-05 ± 1.6e-05 s⁻¹
U30A A52U U54A C71A	< 1e-05 s⁻¹				
G7U C19A A36G A39C	< 1e-05 s⁻¹			< 1e-05 s⁻¹	
C8A C10U C34G	< 1e-05 s⁻¹				
U56G C67A	6.65e-05 ± 1.8e-05 s⁻¹	0.000207 ± 5.3e-05 s⁻¹	0.000842 ± 0.00014 s⁻¹	0.00273 ± 0.00081 s⁻¹	0.00102 ± 0.00014 s⁻¹
G44A U65G	< 1e-05 s⁻¹	< 1e-05 s⁻¹			
G41C G63A A64G	< 1e-05 s⁻¹			< 1e-05 s⁻¹	
C11G G29A U49G U69G	4.27e-05 ± 1.7e-05 s⁻¹				
G32A G37A C50G C67U	6.41e-05 ± 2.1e-05 s⁻¹				
C8A U47C U65A	< 1e-05 s⁻¹				
G9U G51C	< 1e-05 s⁻¹	< 1e-05 s⁻¹		< 1e-05 s⁻¹	
A14U U69C	0.000126 ± 2.3e-05 s⁻¹	0.000147 ± 2.2e-05 s⁻¹	0.000501 ± 0.00015 s⁻¹	0.00132 ± 0.00026 s⁻¹	0.000362 ± 4.8e-05 s⁻¹
A12U A36G U54A	< 1e-05 s⁻¹				
G37C G59C A64G C68A	< 1e-05 s⁻¹	< 1e-05 s⁻¹			
C8A G62U	< 1e-05 s⁻¹	< 1e-05 s⁻¹		5.53e-05 ± 1.6e-05 s⁻¹	
